Biological target: Rac1 (endogenous in HUVEC lysate) (human, UniProt P63000 1-189)
Assay: co-immunoprecipitation with anti-FGD5 antibody from lysates of FGD5 overexpressing HUVECs, western blot
Protocol: GTP-RhoA, Rac1, and cdc42 activation levels were measured using the G-lisa detection system (Tebu-Bio, The Netherlands). For FGD5-protein complex co-immunoprecipitation, magnetic beads (Dynabeads, Invitrogen, The Netherlands) were coated and cross-linked with 2.5 μg anti-FGD5 antibody (Bioscience, The Netherlands) before immunoprecipitation overnight at 4° C. with protein cell lysates of transfected HUVECs (50 μg total protein of a volume of 100 μl incubation buffer). Beads were washed and the protein samples were eluted with eluation buffer (Invitrogen, The Netherlands) before analysis by western blot.

B1: FYVE, RhoGEF and PH domain-containing 5 (FGD5), human, overexpressed in HUVECs by adenovirus (Ad-FGD5) (other)
chain: MFRGPKPPIAPKPRLTAPNEWRASVYLNDSLNKCSNGRLPCVDRGLDEGPRSIPKCSESETDEDYIVVPRVPLREDEPKDEGSVGNKALVSPESSAEEEEEREEGGEACGLEGTGAGEDSVAPAAPGAGALSREGEEGTDLALEDEGEGCADEPGTLEQVSRSEEEEKLVQPHRECSLEDSGPWAGEGVFQSDLLLPHIHGEDQEPPDTPGEAEEDDEEGCASTDPAGADEGSGPDRPTEDMGQDAEDTSEEPPEKEELAGVQEAETATDCPEVLEEGCEEATGVTGGEQVDLSEPPDHEKKTNQEVAAATLEDHAQDESAEESCQIVPFENDCMEDFVTSLTGSPYEFFPTESTSFCSESCSPLSESAKGLESEQAPKLGLRAEENPMVGALCGQCGSLQGGAAEGPAAPDVVVVLEEEALDDALANPYVMGVGLPGQAAPGEGGQAASDALGGYGSKEELNCEAEGGLVPADRKNTSTRVRPHSGKVAGYVPETVPEETGPEAGSSAPGIGGAAEEVGKTLLSLEGKPLEASRALPAKPRAFTLYPRSFSVEGREIPVSVYQEPEGSGLDDHRIKRKEDNLSLSCVIGSSGSFSQRNHLPSSGTSTPSSMVDIPPPFDLACITKKPITKSSPSLLIESDSPDKYKKKKSSFKRFLALTFKKKTENKLHVDVNVSSSRSSSESSYHGPSRILEVDRRSLSNSPQLKSRTGKLRASESPSSLIFYRDGKRKGVPFSRTVSRVESFEDRSRPPFLPLPLTKPRSISFPSADTSDYENIPAMNSDYENIQIPPRRPARAGAFTKLFEDQSRALSTANENDGYVDMSSFNAFESKQQSADQDAESAYTEPYKVCPISSAAPKEDLTSDEEQRSSEEEDSASRDPSVTHKVEGQSRALVIAQELLSSEKAYVEMLQHLNLDFHGAVMRALDDMDHEGRDTLAREELRQGLSELPAIHDLHQGILEELEERLSNWESQQKVADVFLAREQGFDHHATHILQFDRYLGLLSENCLHSPRLAAAVREFEQSVQGGSQTAKHRLLRVVQRLFQYQVLLTDYLNNLCPDSAEYDNTQGALSLISKVTDRANDSMEQGENLQKLVHIEHSVRGQGDLLQPGREFLKEGTLMKVTGKNRRPRHLFLMNDVLLYTYPQKDGKYRLKNTLAVANMKVSRPVMEKVPYALKIETSESCLMLSASSCAERDEWYGCLSRALPEDYKAQALAAFHHSVEIRERLGVSLGERPPTLVPVTHVMMCMNCGCDFSLTLRRHHCHACGKIVCRNCSRNKYPLKYLKDRMAKVCDGCFGELKKRGRAVPGLMRERPVSMSFPLSSPRFSGSAFSSVFQSINPSTFKKQKKVPSALTEVAASGEGSAISGYLSRCKRGKRHWKKLWFVIKGKVLYTYMASEDKVALESMPLLGFTIAPEKEEGSSEVGPIFHLYHKKTLFYSFKAEDTNSAQRWIEAMEDASVL
notes: Guanine-nucleotide exchange factor; Made with the pAd/CMV/V5 gateway system; also called Ad-FGD5 transgene product
Q: Does B1 bind?
A: no binding
